Test results taken from US20160032001A1 (APEXIGEN, published 2016).
Read-outs that look alike come from different tables or passages of the source.

T1: RANKL expressed on the surface of 293 cells (UniProt O14788 1-317, limits assumed)
T1 construct: whole, on cells; also called RANKL-transfected 293 cells; cells expressing RANKL
T1 sequence (looked up): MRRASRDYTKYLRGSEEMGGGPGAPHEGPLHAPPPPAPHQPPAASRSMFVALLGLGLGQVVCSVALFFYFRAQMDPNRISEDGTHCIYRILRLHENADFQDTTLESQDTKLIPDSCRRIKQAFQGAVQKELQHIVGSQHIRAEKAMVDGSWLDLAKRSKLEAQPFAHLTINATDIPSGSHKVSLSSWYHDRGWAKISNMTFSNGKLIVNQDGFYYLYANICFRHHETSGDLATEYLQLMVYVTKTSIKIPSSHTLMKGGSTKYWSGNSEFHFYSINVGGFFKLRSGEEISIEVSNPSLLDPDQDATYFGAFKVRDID

T2: human RANKL protein (human, UniProt O14788 140-317, limits assumed)
T2 sequence (looked up): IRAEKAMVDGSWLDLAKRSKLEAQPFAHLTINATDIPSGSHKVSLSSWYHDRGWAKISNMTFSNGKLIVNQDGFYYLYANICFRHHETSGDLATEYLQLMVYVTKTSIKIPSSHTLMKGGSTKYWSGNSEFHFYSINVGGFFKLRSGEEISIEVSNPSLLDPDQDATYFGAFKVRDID


Columns and labels:
[1] = target: T1, RANKL expressed on the surface of 293 …; assay: flow cytometry (MFI) on RANKL-transfected 293 cells
human RANKL protein [2] = target: T2, human RANKL protein; assay: competition ELISA: RANKL (0.5 ug/ml) pre-incubated with the antibody, then binding to coated human RANK (8 ug/ml) detected; blocked partner RANK
human RANKL protein [3] = target: T2, human RANKL protein; assay: ELISA on RANKL protein (OD450nm)
[4] = target: T1, RANKL expressed on the surface of 293 …; assay: flow cytometry (MFI) on RANKL-transfected 293 cells; remark: listed apart in the source
human RANKL protein [5] = target: T2, human RANKL protein; assay: competition ELISA: RANKL (0.5 ug/ml) pre-incubated with the antibody, then binding to coated RANK (8 ug/ml) detected; blocked partner RANK [table at the lower right]

EC50 [1] [µg/mL] | IC50 (human RANKL protein [2]) [µg/mL] | EC50 (human RANKL protein [3]) [µg/mL] | EC50 [4] [µg/mL] | IC50 (human RANKL protein [5]) [µg/mL] | Binder
0.398 | 0.0812 |  |  |  | clone 547 rabbit anti-RANKL antibody (antibody, V domains shown) VH: QEQLKESGGGLVTPGGTLTLTCTASGFSLSSNGMSWVRQAPGKGLEWIGYIYSGSSPYYASWAKGRFTISKTSSTTVDLKMTSLTTEDTAKYFCARHVSGGGWYLDIWGPGTLVTVSL VL: DMIQTPASVEVAVGGTVTINCQASQSIGSNLAWYQQKPGQRPKLLIYGASTLASGVSSRVKGSGSGTQFTFTISDVECTDAATYYCQQAYSISNVDNAFGGGTEVVVK
 |  | 0.0238 | 0.947 | 0.081 | humanized clone 23 antibody, VH 23HZD-1 HC with humanized VL 23 Vkb, IgG2 (antibody, V domains shown, also called humanized 23 vkb; humanized 23 VKB) VH: EVQLVESGGGLVQPGGSLRLSCAASGFSLSSDGMSWVRQAPGKGLEWIGYIYSGSSPYYANWAKGRFTISKDSSKNTVYLQMNSLRAEDTAVYFCARHGSGGGWYLDIWGPGTLVTVSS VL: DIQMTQSPSSLSASVGDRVTINCQASQSIGSNLAWYQQKPGKRPKLLIYAASTLPSGVPSRFSGSGSGTDFTLTISSLQPEDFATYYCQQAYSVGNVDNAFGGGTKVEIK
0.172 | 0.0284 |  |  |  | clone 480 rabbit anti-RANKL antibody (antibody, V domains shown) VH: QSLEESGGRLVTPGGSLTLTCTVSGFSLSNYEINWVRQAPGKGLEWIGYIDVGSGTWYASWAKGRFTISKTSTTVDLKITSPTTGDTATYFCSRSYNPMDLWGPGTLVTVSS VL: DMTQTPASVEVAVGGTVTIKCQASQNIGSNLAWYQQKPGQRPKLLIYSASTLASGVPSRFKGSGSGTQFTLTISGVQCDDAATYYCQQGYSVGNVNNAFGGGTEVVVK
 |  | 0.0117 |  |  | h23n IgG2 humanized clone 23 antibody (antibody, V domains shown, IgG2; also called h23n VH and VL) VH: QEQLVESGGGLVQPGGSLRLSCVASGFSLSSDGMSWVRQAPGKGLEWIGYIYSGSSPYYANWAKGRFTISKDSSTNTVFLQMNSLRAEDTAVYFCARHGDGGGWYLDIWGPGTLVTVSS VL: DIQMTQSPSSLSASVGDRVTINCQASQSIGSNLAWYQQKPGKAPKLLIYAASTLPSGVSSRFSGSGSGTDFTLTINSLEAEDAATYYCQQAYSVGNVDNAFGGGTKVEIK
0.0632 | 0.0301 |  |  |  | clone 476 rabbit anti-RANKL antibody (antibody, V domains shown) VH: QSLEESGGGLVQPEGSPTLTCTAYLIDFSRYGYMCWVRQAPGKGLEWIGCIHAGRSGRTYYANWAKGRFTISKTSSTTVTLQMTSLTAADTATYFCAKSGDSYVGYFALWGPGTLVTVSS VL: DIVMTQTPASVEAAVGGTVTIKCQASENIYNYLSWYQQKPGQPPKLLIYEASKLASGVSSRFKGSGSGTEFTLTISDLECADAATYYCQSYYDVTSHSYDNPFGGGTEVVVS
